# Assay results: paper PMC3777995, “The Inhibitory Helix Controls the Intramolecular Conformational Switching of the C-Terminus of STIM1” (PLoS ONE, 2013)
# Several values for one entry are separate records, joined by “and”; a condition that tells them apart may be missing. Identical values can stand only once.
# Key:
# [1] = target: the molecule itself; test: SEC; HiLoad 26/60 Superdex 200 and Superdex 200 columns calibrated with protein standards; 20 mM Tris-HCl pH 8.0, 200 mM NaCl, 1 mM EDTA
# [2] = target: the molecule itself; test: AUC; sedimentation velocity, 42,000 rpm, 4°C, interference detection; approximately 6 mg/ml CC1-IH, 1.57 mg/ml CC1, 1.2 mg/ml MBP-IH; 20 mM Tris-HCl pH 8.0, 200 mM NaCl, 1 mM EDTA; self-associating multimerization model
Protein,stoichiometry N [1],stoichiometry N [2]
"ERSRQKYAEEELEQVREALRKAEKELESHSS (peptide, UniProt Q13586 310-340, looked up, limits 310-340 are printed for the MBP-tagged IH from which this fragment was cut; Theoretical mass 3.7 kDa; also called IH-only protein; source: E. coli, obtained by PreScission digestion of purified MBP-IH, purified (Superdex 200)) [IH-only fragment of STIM1]",2,
"ERSRQKYAEEELEQVREALRKAEKELESHSS (domain or fragment, human, UniProt Q13586 310-340, looked up, made by loop-out of the CC1 fragment from MBP-CC1-IH; Theoretical mass 49 kDa; a PreScission-cleavable segment stands between MBP and IH; also called IH-MBP fusion protein; source: E. coli, purified (MBPTrap, Q-Sepharose, Superdex-200)) [MBP-IH fusion protein (MBP-tagged IH, STIM1 residues 310-340)]",2,
"wild-type CC1-IH (human STIM1 amino acids 237-340) (domain or fragment, UniProt Q13586 237-340, looked up, Predominantly a dimer and partially a tetramer by AUC; His tag removed with PreScission protease; source: E. coli BL21(DE3) Codon-Plus, purified (Ni-NTA, Q-Sepharose, Superdex-200)) SKEHMKKMMKDLEGLHRAEQSLHDLQERLHKAQEEHRTVEVEKVHLEKKLRDEINLAKQEAQRLKELREGTENERSRQKYAEEELEQVREALRKAEKELESHSS",,2 and 4
